According to article PMC3229578, “Brachyury and Related Tbx Proteins Interact with the Mixl1 Homeodomain Protein and Negatively Regulate Mixl1 Transcriptional Activity” (PLoS ONE, 2011):

Columns and labels:
Assay in all cases: pull-down; bacterially made, purified His-Brachyury derivatives incubated with GST-Mixl1 derivatives or GST alone on glutathione beads in ELB150 buffer, 4°C, 3 h; washed in ELB300 (0.3 M KCl); Western blot with anti-T N19
Conditions in all cases: both partners purified
His-mBrachyury = biological target: T1, His-mBrachyury (mouse, UniProt P20293 1-436)
T1 construct: Brachyury (T), mouse; in pET15b by Gateway cloning; also called mT; recombinant His-tagged T protein; source: E. coli BL21 RIPL(DE3), purified (Talon resin)
T1 sequence (looked up): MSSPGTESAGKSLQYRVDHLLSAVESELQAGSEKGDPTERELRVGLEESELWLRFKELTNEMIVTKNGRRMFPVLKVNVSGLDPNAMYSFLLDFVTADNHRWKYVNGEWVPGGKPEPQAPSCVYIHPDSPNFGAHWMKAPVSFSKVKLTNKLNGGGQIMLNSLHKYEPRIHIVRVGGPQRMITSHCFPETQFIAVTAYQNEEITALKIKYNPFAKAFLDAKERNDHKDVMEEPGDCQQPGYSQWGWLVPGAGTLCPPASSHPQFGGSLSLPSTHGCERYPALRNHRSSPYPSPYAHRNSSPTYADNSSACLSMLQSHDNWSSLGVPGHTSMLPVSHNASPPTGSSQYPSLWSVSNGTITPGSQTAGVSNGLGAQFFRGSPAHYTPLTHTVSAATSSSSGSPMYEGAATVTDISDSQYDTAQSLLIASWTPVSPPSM

His-hBrachyury = biological target: T2, His-hBrachyury (human, UniProt O15178 1-435)
T2 construct: Brachyury (T), human; in pET15b by Gateway cloning; also called hT; pET15b-hBrachyury; source: E. coli BL21 RIPL(DE3), purified (Talon resin)
T2 sequence (looked up): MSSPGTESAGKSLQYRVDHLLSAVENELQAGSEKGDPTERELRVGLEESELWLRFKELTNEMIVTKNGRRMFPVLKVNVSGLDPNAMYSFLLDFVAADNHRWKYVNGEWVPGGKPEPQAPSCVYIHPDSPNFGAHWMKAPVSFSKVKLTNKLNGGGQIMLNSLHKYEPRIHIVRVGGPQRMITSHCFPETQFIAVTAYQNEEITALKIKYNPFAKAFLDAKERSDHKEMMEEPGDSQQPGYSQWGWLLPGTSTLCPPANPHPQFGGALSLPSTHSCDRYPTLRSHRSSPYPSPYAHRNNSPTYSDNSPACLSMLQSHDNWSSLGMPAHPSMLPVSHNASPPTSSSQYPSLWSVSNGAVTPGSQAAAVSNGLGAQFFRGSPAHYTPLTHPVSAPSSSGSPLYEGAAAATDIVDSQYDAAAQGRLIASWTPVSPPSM

His mT-box = biological target: T3, His mT-box (mouse, UniProt P20293 1-230)
T3 construct: Brachyury (T), mouse, T-box domain aa 1-230; also called His-Brachyury T-box domain; T-box domain (aa 1–230) of Brachyury; source: E. coli BL21 RIPL(DE3), purified (Talon resin)
T3 sequence (looked up): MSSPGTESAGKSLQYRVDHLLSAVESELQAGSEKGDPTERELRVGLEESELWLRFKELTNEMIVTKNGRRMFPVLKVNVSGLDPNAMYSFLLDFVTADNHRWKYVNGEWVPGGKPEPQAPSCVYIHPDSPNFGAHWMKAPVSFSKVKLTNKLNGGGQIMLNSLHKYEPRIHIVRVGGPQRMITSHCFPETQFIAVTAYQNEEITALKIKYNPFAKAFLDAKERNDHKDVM

B1: GST-mMixl1 (bacterial) (natural protein)
chain: not shown
notes: Mixl1 homeodomain protein, mouse; in pGEX2T by Gateway cloning; also called recombinant GST mMixl1; pGEX-mMixl1; source: E. coli BL21 RIPL(DE3), purified (glutathione agarose)
His-mBrachyury
  binding result: binds

B2: GST-hMixl1 (natural protein)
chain: not shown
notes: MIXL1, the human ortholog of Mixl1; in pGEX2T by Gateway cloning; also called pGEX-hMixl1; source: E. coli BL21 RIPL(DE3), purified (glutathione agarose)
His-hBrachyury
  binding result: binds

B3: GST mMixl1 HD (domain or fragment)
chain: not shown
notes: Made as one of the 'GST-Mixl1 derivatives' of the methods; source: E. coli BL21 RIPL(DE3), purified (glutathione agarose)
His mT-box
  binding result: binds
